Patent US20230235075A1 (DYNAMICURE BIOTECHNOLOGY, published 2023)
Where a chain is given by its changes, count along the chain named.

Legend:
[1] = target: T1, Human CD93 on the cell surface (human CD93 expressing CHO cells; HUVEC, U937 and KG1a cells) (human, UniProt Q9NPY3 22-652); assay: summary table, column 'Binding' (assay not given)
T1 construct: whole, on cells; also called hCD93 CHO cells; CHO-hCD93
T1 sequence (looked up): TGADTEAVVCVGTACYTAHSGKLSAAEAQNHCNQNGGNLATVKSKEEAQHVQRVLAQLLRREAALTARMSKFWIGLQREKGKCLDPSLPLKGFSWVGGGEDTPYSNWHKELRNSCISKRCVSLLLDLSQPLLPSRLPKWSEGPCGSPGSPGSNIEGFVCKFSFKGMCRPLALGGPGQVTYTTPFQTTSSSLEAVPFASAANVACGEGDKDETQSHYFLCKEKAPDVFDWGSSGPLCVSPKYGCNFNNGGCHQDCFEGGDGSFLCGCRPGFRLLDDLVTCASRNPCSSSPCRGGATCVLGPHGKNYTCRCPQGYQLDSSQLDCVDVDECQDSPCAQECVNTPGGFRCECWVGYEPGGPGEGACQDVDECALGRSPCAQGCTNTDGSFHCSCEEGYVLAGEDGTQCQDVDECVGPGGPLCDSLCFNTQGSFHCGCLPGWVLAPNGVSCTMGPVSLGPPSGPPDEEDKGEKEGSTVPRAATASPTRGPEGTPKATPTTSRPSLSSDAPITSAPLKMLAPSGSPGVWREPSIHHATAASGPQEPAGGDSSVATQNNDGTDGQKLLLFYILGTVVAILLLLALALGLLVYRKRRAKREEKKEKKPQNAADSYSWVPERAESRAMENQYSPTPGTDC

[2] = target: T2, Human CD93 recombinant protein (Sino Biological Inc, Catalog #12589-H08H) (human, UniProt Q9NPY3 22-580, biotinylated with EZ-LINK NHS-PEG4 biotin in the Octet assays); assay: Octet epitope binning on biotinylated human CD93, antibody 10 µg/ml
T2 construct: also called hCD93; His-tagged human CD93
T2 sequence (looked up): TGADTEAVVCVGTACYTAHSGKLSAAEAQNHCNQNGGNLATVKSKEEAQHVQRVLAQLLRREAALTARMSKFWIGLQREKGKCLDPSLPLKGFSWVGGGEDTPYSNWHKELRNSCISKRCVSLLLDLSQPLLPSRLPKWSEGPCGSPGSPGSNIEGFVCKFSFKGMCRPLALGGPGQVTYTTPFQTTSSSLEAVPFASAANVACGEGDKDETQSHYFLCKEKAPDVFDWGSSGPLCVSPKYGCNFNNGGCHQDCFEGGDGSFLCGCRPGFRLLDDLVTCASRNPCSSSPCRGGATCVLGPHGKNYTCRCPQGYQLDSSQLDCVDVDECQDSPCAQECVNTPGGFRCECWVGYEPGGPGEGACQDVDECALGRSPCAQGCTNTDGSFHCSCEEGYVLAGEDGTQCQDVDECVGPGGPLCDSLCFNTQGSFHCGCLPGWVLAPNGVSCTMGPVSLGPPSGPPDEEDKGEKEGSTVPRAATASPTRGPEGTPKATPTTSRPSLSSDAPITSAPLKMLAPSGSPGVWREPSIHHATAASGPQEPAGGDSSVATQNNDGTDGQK
Description: Anti-CD93 antibody epitope bins were determined using Octet QKe (Fortebio). Human CD93 recombinant protein (Sino Biological Inc, Catalog #12589-H08H) were biotinylated using EZ-LINK NHS-PEG4 biotin (Thermo Fisher Scientific). Streptavidin biosensors tips (Fortebio) were used to capture biotinylated human CD93 protein (300 seconds in 5 μg/ml). The baseline was stabilized for 60 seconds in 1× kinetics buffer (Fortebio) before primary anti-CD93 antibodies (10 μg/ml) were allowed to associate for 300 seconds with captured protein. A panel of secondary anti-CD93 antibodies (10 μg/ml) were then allowed to associate with the antigen and primary antibody complex for additional 300 seconds. Signals were recorded for each binding event and data analysis was performed on ForteBio Data Analysis HT 11.1 software.

[3] = target: T1, Human CD93 on the cell surface (human …); assay: FACS, CHO cells overexpressing human CD93

B1: 5H9 (antibody, IgG2a, V domains shown)
VH: QVQLQQSGPDLVKPGASVKISCKASGYAFSTYWMNWVKQRPGKGLEWIGRIFPGDGDANYNGKFKGKATLTADKSSSTAYMQLSSLTSEDSAVYFCTRTGAAYDFDPFPYWGQGTLVTVSA
VL: DIVMTQAAFSNPVTLGTSASISCSSSKSLLHSNGVTYLYWYLQRPGQSPQLLIYRMSNLASGVPDRFSGSGSGTDFTLRISRVEAEDVGIYYCAQMLERPFTFGSGTKLEIK
notes: also called 5H9 mIgG2a
[1]
  binding result: binds
[2]
  binding result: binds

B2: 17A7 (antibody, V domains shown)
VH: B1 VH with D10E, A24G, A58T, N59D, N61D, S77N, T97A, D104E
VL: B1 VL with S26T, N33S, V35I, I90V
notes: Mouse hybridoma monoclonal antibody
[1]
  binding result: binds

B3: 16G9 (antibody, V domains shown)
VH: EVQLQQSGPELVKPGASVKMSCKASGYTFTDYYMNWVKQSHGKSLEWIGRVNPNNGGKTYNQKFKGKATLTVDKSLSTAYMQLNSLTSEDSAVYYCARWRLRPVDYGMDYWGQGTSVTVSS
VL: DIVLTQSPASLAVSLGQRATISCRASQSVSTSSYSYMHWYQQKPGQPPKLLIKYASNLESGVPARFSGSGSGTDFTLNIHPVEEEDTATYYCQHSWEIPFTFGSGTKLEIK
notes: as for B2
[1]
  binding result: binds
[2]
  binding result: binds

B4: 19E12 (antibody, V domains shown)
VH: QVQLQQSGAELVRPGASVKLSCKASGYTFTDYEMHWVRQTPVHGLEWIGGIDPETGGTAYNQKFKGKATLTADKSSSTAYMELRSLTSEDSAVYYCTRGAWFAYWGQGTLVTVSA
VL: QAVVTQESALTTSPGETVTLTCRSSTGAVTTSNSANWVQEKPDHLFTGLIGGTNNRAPGVPARFSGSLIGDKAALTITGAQTEDEAIYFCALWYNNHFVFGGGTKLTVL
notes: as for B2
[1]
  binding result: binds
[2]
  binding result: binds

B5: 16B6 (antibody, V domains shown)
VH: QVQLQQSGPELVKPGASVKISCKASGYAFSRSWMNWVKQRPGKGLEWIGWIYPGDGDTNYNGKFKGKATLTADKSSSTAYMQLSSLTSEDSAAYFCARSATLPYWYFDVWGAGTTVTVSS
VL: DIKMTQSPSSMYASLGERVTITCKASQDIKSYLSWYQQKPWKSPKTLIYYATNLADGVPSRFSGSGSGQDYSLTISSLGSDDTATYYCLQHVESPWTFGGGTKLEIK
notes: as for B2
[1]
  binding result: binds
[2]
  binding result: binds

B6: 20C7 (antibody, V domains shown)
VH: EVQLQQSGPELVNPGASVKMSCKASGYTFTAYVMHWVKQKPGQGLEWIGYIFPYNDGTEYNEKFKGKATLTSDKSSSTAYMELSSLTSEDSAVYYCARRTDGNPYTMDYWGQGTSVTVSS
VL: DIVMTQSHKFMSTSVGDRVSITCKASQDVSTAVAWYQQKPGQSPKLLIHSASYRYTGVPDRFTGRGSGTDFTFTISSVQAEDLAVYYCQQHYSTPFTFGSGTKLEIK
notes: as for B2
[1]
  binding result: binds

B7: 12H4 (antibody, V domains shown)
VH: EVQLQQSGPELVKPGASVKVSCKASGYTFTDYYIHWVKQRPGQGLEWIGEIYPGSDDAYYNEKFKGKATLTADKSSSTAYMQLSSLTSEDSAVYFCTRETTATAYWGQGTLVTVSA
VL: QIVLTQSPAIMSASPGEKVTITCSASSSVSLIYWFQQKPGTSPKLWIYSTSNLASGVPARFSGSGSGTSYSLTISRMEAEDAATYYCQQRSGYPPTFGGGTKLEIK
notes: as for B2
[1]
  binding result: binds

B8: 17E6 (antibody, V domains shown)
VH: B6 VH with N13K, A31S, M34I, F52N, N55S, G57Y, E59Q, Y95S, T100A, T106A
VL: B6 VL with I21T, A34V, H49Y, R65S, S76T
notes: as for B2
[1]
  binding result: binds

B9: 19B5 (antibody, V domains shown)
VH: DVNLVESGGGLVKLGGSLKLSCAASGFTFSNYYMSWVRQSPEKRLEWVATISNNGDSTYYLDTVKGRFTISRDSAENTLYLQMSSLISEDTAVYYCTRVGTGFTYWGQGTLVTVSA
VL: DIVLTQSPATLSVTPGDSVSLSCRASQSINNYLHWYQQRSHESPRLLIKFASQSISDIPSRFSGSGSGTDFTLSINSIETEDFGMYFCQQSNSWPLTFGAGTKLELK
notes: as for B2
[1]
  binding result: binds

B10: Humanized 17B10 H1L1 (antibody, mouse IgG1, V domains shown)
VH: QVQLVQSGAEVKKPGSSVKVSCKASGYAFSSYWLNWVRQAPGQGLEWFGRIYPGDGDTDYNGKFKGRVTLTADKSTSTAYMELSSLRSEDTAVYFCVRGDGYWAMDYWGQGTTVTVSS
VL: DIVMTQSPLSLPVTPGEPASISCRFSQSLLHSNGITYLYWYLQKPGQSPQLLIYQMSNLASGVPDRFSGSGSGTDFTLKISRVEAEDVGVYYCAQNLELPWTFGGGTKLEIK
notes: Chimeric Fc: mouse IgG1 CH2 and CH3 domains and human CH1 domains
[3]
  binding result: binds

B11: Humanized 17B10 H1L2 (antibody, mouse IgG1, V domains shown)
VH: B10 VH
VL: B10 VL with S7T, Q55T
[3]
  binding result: binds

B12: Humanized 17B10 H2L1 (antibody, mouse IgG1, V domains shown)
VH: QVQLVQSGAEVVKSGASVKVSCKASGYAFSSYWLNWVRQAPGQGLEWFGRIYPGDGDTDYNGKFKGRVTLIRDTSTSTVYMELTSLTSEDTAVYYCVRGDGYWAMDYWGQGTLVTVSS
VL: B10 VL
[3]
  binding result: binds

B13: Humanized 17B10 H1L3 (antibody, mouse IgG1, V domains shown)
VH: B10 VH
VL: DIVMTQSPDSLAVSLGERATINCRFSKSLLHSNGITYLYWYQQKPGQPPKLLIYQMSNLASGVPDRFSGSGSGTDFTLTISSLQAEDVAVYYCAQNLELPWTFGGGTKLEIK
[3]
  binding result: binds

B14: Humanized 17B10 H2L3 (antibody, mouse IgG1, V domains shown)
VH: B12 VH
VL: B13 VL
[3]
  binding result: binds

B15: Humanized 17B10 H3L1 (antibody, mouse IgG1, V domains shown)
VH: QVQLVQSGPEVKKPGESLKISCKASGYAFSSYWLNWVRQMPGKGLEWMGRIYPGDGDTDYNGKFKGQVTISADKSSGTAYLQLSSLKASDTAVYFCVRGDGYWAMDYWGQGTLVTVSS
VL: B10 VL
[3]
  binding result: binds

B16: Humanized 17B10 H3L2 (antibody, mouse IgG1, V domains shown)
VH: B15 VH
VL: B10 VL with S7T, Q55T
[3]
  binding result: binds
